Series [1] addresses T1, APG30128-L32-nAPG07433.1 (synthetic).
T1 chain: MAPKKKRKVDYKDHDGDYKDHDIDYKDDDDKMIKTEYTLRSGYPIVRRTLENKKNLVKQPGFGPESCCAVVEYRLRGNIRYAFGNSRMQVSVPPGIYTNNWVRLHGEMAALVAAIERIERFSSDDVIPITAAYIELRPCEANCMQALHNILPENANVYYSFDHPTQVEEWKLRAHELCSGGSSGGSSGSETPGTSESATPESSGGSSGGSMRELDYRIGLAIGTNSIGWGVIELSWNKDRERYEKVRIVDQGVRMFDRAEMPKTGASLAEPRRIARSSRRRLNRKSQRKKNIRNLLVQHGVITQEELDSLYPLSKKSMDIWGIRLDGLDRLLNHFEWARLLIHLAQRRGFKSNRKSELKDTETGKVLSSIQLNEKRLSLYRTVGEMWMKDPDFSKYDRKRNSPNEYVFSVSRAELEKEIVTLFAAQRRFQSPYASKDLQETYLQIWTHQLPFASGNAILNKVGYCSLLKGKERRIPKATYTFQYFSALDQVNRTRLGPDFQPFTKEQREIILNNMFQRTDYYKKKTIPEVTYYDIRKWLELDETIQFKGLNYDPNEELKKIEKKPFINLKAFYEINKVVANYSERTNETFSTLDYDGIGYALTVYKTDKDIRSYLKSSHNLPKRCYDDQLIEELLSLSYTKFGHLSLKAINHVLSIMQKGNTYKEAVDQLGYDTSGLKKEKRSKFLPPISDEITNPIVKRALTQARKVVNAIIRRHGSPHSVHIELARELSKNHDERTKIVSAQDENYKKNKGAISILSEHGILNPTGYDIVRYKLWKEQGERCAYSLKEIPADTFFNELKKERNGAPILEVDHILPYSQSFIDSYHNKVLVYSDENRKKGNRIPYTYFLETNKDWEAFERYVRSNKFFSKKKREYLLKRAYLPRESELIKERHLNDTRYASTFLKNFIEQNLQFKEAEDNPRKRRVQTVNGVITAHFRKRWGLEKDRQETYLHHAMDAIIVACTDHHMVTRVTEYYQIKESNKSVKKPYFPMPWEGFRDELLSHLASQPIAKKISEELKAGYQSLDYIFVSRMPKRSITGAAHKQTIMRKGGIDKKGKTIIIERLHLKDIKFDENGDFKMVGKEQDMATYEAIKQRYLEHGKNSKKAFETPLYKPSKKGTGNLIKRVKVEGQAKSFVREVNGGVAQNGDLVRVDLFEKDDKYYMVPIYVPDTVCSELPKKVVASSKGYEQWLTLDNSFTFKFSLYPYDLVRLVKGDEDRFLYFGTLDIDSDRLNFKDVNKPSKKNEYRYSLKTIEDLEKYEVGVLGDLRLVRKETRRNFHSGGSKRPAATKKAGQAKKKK
As to the kind of experiment: cell_activity; HEK293FT; PAM SEQ 152. The following applies: tags: SV40 NLS, 3xFLAG N-term; nucleoplasmin NLS C-term. In outline: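 Editing read out by next-generation sequencing (MiSeq 2×250) of PCR amplicons spanning the target site, analysed for INDELs or % cytosine conversion per position (position 1 nearest PAM).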

Series [2] has as its target nAPG07433.1-APG05840 (synthetic). As to the kind of experiment: cell_activity; HEK293FT; C>G predominant; PAM SEQ 152. The following applies: tags: SV40 NLS, 3xFLAG N-term; nucleoplasmin NLS C-term.

B1: SGN000930 sgRNA ; SGN000930 target (ssRNA ; dsDNA)
RNA: GAACAACUCAAAUGGAAAUGAAUAUGUCAUAGUUCCAUGAAAGCCAAAAGUGGCUUUGAUGUUUCUAUGAUAAGGGUUUCGGCCCGUGGCGUCGGGGAUCGCCUGCCCAUUCCGAUGGGCUUCUCCCCAUUUAUU
DNA 1: GAACAACTCAAATGGAAATGAATAT
DNA 2: ATATTCATTTCCATTTGAGTTGTTC
With B1, the activity turned out to be 2.03 % mutated reads in series [1] and 17.5 % mutated reads in series [2].
